Measurements taken from patent publication US20240376196A1 (HEFEI TG IMMUNOPHARMA, published 2024).

How the values were obtained:
[1] = target: T1, human CD112 extracellular region His tag fusion protein (human, UniProt Q92692 32-360); test: competition ELISA, CD112-His coated, blocked ligand CD226-Biotin, HRP-streptavidin, OD450
T1 construct: Bought from Acro; only its extracellular domain stood in the assay; also called CD112-His; CD112 extracellular domain His tag fusion protein; not shown: His tag
T1 sequence: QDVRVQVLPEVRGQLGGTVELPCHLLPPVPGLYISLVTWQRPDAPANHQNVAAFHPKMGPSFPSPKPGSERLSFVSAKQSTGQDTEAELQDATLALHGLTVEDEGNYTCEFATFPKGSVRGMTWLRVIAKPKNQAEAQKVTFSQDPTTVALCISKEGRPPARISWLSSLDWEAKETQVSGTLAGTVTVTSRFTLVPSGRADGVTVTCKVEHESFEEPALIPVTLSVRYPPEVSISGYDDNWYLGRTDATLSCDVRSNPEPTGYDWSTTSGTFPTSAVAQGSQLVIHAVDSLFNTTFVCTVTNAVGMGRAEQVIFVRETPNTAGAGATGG
Experimental: (§1) The ELISA experiment was used to determine the blocking characteristic of the murine antibody CD112 9G11 antibody.
(§2) The human CD112-His protein (purchased from Acro) was diluted to 2 μg/ml with PBS buffer and added to a 96-well plate in a volume of 100 μl/well and left overnight at 4° C. The PBS buffer solution was sucked off from the 96-well plate. The plate was washed 6 times with PBST (pH 7.2, PBS containing 0.1 vol % of Tween 20) buffer solution. 200 μL of PBS containing 10% BSA was added per well and incubated at 37° C. for 2 hours for blocking. The blocking solution was removed and the plate was washed 6 times with PBST. […] The reaction system was removed. The plate was washed 6 times with PBST. 100 μL of HRP (horseradish peroxidase)-labeled Streptavidin secondary (purchased from Southern Biotech) antibody diluted with PBST containing 0.05% BSA (diluted at 1:5000) per well and incubated for 1 h at 37° C. The plate was washed 6 times with PBST, and 80 μL of TMB (tetramethylbenzidine) was added per well. After 3 min of incubation at room temperature, 80 μL of 4M sulfuric acid was added per well to terminate the reaction. The absorbance was read at […] with a microplate reader.

[2] = target: T1, human CD112 extracellular region His …; test: competition ELISA, CD112-His coated, blocked ligand TIGIT-Biotin, HRP-streptavidin, OD450
Experimental: as §1, §2

[3] = target: T1, human CD112 extracellular region His …; test: competition ELISA, CD112-His coated, blocked ligand CD112R-Fc-Biotin, HRP-streptavidin, OD450
Experimental: as §1, §2

B1: murine monoclonal antibody 9G11 (antibody, mouse IgG2a, kappa)
heavy: DVKLVESGGGLVKLGGSLKLSCAASGFTFSSYYMSWVRQTPEKRLELVAAINSQGGSTYYPDTVKGRFTISRDNAKNTLYLQMSSLKSEDTGLYYCARSDYDWAWFAYWGQGTLVTVSAAKTTAPSVYPLAPVCGDTTGSSVTLGCLVKGYFPEPVTLTWNSGSLSSGVHTFPAVLQSDLYTLSSSVTVTSSTWPSQSITCNVAHPASSTKVDKKIEPRGPTIKPCPPCKCPAPNLLGGPSVFIFPPKIKDVLMISLSPIVTCVVVDVSEDDPDVQISWFVNNVEVHTAQTQTHREDYNSTLRVVSALPIQHQDWMSGKEFKCKVNNKDLPAPIERTISKPKGSVRAPQVYVLPPPEEEMTKKQVTLTCMVTDFMPEDIYVEWTNNGKTELNYKNTEPVLDSDGSYFMYSKLRVEKKNWVERNSYSCSVVHEGLHNHHTTKSFSRTPGK
light: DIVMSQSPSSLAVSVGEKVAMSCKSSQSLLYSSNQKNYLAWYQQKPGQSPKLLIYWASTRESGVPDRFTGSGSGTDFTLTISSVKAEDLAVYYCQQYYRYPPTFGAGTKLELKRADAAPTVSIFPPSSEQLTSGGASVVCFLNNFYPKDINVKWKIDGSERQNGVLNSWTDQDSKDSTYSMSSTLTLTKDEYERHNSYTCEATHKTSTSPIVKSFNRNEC
notes: also called 9G11 antibody; CD112 murine antibody 9G11
IC50 (read off the curve) [1]: ~6 µg/mL
IC50 (read off the curve) [2]: ~0.5 µg/mL
IC50 (read off the curve) [3]: ~0.5 µg/mL
